# B1: LmbC (Streptomyces lincolnensis) (protein)
# chain: MSSSVRLSTLLASAAEARPEAPAVLGETRLPVTYGELAARAGGIQAALAGLGVRAGDRVALLSGRTDADAVAAVHAILAAGAVYVPLDAASPPARWASVSRVCAPTAVVGERALLDRFAAAVPGPRRLALPSDGDELPAGRLDPVRSDGTDVAYLLTTSGSTGVPKCVAHTGAGAVAFLEWMVGAFPVGGDDVFACHAPLHFDVSVASVLGSALGGAALAPVPRELSGFPVELATWIAERAVTVWLSVPYPLARLSGLEERAARERLATLRTVVFAGDVFPHQRLAALMRCAPGARFLNIYGPTETNGCTYEVVDAPPAGPVPIGRPVECAECWVEDDDGRPVDAVGSVGELVVAGPTVAAGYWGVEGHGAERFRTGETCPGGRAYATGDQVRVLPGGRYAFLGRMDNMIKMRGQRFELEEVENAVRLAPGVEDCCVVKVDVRDDHSRLLAVVVGPGAGDPRTLREHCLTRLPSWAVPHRFLTAAALPLGSTGKVDRRALREELVTRGE
# notes: full-length stand-alone A-domain, C-terminal His8 tag kept, pET42b (plmbC1), E. coli BL21(DE3)
# How the values were obtained:
# Assay in all cases: purified protein
# Type in all cases: biochemical, Streptomyces lincolnensis
# Settings in all cases: amino acid-dependent exchange of 32P from PPi into ATP
# purified protein [1] = substrate: CCCCC[C@H]1CN[C@H](C(=O)O)C1
# purified protein [2] = substrate: CCCC[C@H]1CN[C@H](C(=O)O)C1
# purified protein [3] = substrate: CCC[C@H]1CN[C@H](C(=O)O)C1
# purified protein [4] = substrate: CC[C@H]1CN[C@H](C(=O)O)C1
protein,measurement,setting,value
B1,Km,purified protein [1],60 ± 3 µM
same,kcat,purified protein [1],0.917 ± 0.0133 s⁻¹
same,kcat/Km,purified protein [1],15300 M⁻¹ s⁻¹
same,Km,purified protein [2],120 ± 6 µM
same,Km,purified protein [3],280 ± 30 µM
same,kcat,purified protein [3],0.55 ± 0.0167 s⁻¹
same,kcat/Km,purified protein [3],2000 M⁻¹ s⁻¹
same,Km,purified protein [4],6400 ± 300 µM
